Drawing on US20200147244A1, this text covers EC50 for 3 substances.

The target of experiment [1] is His-PSMA (Sino Biological) (human) (UniProt Q04609). Description: ELISA, PSMA immobilized by its His tag, PCC titrated in solution.
Experiment [2] concerns the target PSMA-Myc-Flag (Origene) (human) (UniProt Q04609). Put plainly: ELISA, PSMA immobilized by its Myc-Flag tag, PCC titrated in solution. Background: An ELISA detects its analyte on a solid surface through an enzyme-linked reagent.
Experiment [3] has as its target recombinant PSMA protein (human) (UniProt Q04609). Put plainly: ELISA on PSMA.

Chain of recombinant PSMA protein (human) (Q04609 44-750 limits assumed): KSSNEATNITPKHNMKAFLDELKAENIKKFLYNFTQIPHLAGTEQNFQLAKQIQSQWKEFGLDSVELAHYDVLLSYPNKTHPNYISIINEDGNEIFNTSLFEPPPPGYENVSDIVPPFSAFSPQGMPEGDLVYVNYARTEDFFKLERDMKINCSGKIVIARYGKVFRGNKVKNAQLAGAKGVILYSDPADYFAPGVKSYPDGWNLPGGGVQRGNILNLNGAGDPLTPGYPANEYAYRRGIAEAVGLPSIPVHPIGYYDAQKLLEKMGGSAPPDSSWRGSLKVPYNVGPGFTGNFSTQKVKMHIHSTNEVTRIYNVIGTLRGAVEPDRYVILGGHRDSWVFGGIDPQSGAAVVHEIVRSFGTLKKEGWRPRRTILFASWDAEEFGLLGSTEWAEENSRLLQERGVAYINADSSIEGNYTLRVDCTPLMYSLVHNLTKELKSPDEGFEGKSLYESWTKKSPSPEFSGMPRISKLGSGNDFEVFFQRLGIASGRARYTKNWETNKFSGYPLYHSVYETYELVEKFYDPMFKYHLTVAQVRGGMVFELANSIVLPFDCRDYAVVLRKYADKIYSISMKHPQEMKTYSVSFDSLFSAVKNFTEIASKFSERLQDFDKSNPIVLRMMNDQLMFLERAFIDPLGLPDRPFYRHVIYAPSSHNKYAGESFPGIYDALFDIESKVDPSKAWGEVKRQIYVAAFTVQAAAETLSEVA
Chain of His-PSMA (Sino Biological) (human) (Q04609 44-750 limits assumed): as above
Chain of PSMA-Myc-Flag (Origene) (human) (Q04609 whole entry): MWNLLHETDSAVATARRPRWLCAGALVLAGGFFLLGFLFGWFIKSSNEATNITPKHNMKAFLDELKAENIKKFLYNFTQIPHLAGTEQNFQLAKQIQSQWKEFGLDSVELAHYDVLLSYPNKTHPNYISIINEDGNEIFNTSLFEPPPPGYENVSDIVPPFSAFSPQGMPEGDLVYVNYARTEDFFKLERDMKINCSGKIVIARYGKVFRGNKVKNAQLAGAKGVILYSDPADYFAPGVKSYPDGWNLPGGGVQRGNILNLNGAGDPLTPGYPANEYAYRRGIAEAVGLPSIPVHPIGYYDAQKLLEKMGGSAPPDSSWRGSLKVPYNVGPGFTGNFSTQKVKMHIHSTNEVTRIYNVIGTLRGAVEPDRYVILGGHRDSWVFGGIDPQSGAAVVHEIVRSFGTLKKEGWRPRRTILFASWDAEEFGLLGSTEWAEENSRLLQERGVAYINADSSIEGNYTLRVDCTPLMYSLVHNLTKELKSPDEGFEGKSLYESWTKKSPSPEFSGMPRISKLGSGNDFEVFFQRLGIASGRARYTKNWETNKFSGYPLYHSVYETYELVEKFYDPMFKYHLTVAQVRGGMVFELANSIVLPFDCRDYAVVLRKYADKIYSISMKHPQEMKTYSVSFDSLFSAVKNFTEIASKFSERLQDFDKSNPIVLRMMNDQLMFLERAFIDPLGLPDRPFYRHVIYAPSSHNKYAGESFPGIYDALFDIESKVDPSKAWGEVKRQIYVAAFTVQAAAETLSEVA

With hreww (SEQ ID NO:10) (peptide), the concentration for a half-maximal effect (EC50) (usually the concentration needed to bring the measured effect to its halfway point) worked out at 872 nM in experiment [1] and 662 nM in experiment [2].

On to hnwlG (SEQ ID NO:19) (peptide), for which the EC50 in experiment [3] amounted to 5580 nM. The same measure, in the same setting: the figure for lfkhh (SEQ ID NO:16) (peptide) is 8.6 nM.
